Stoichiometry N data for one substance are collected here from publication PMC6162318.

The target of the assay is ELIC-α1GABAAR chimera (Erwinia chrysanthemi | human) (UniProt P0C7B7). Put plainly: crystal structure.

For orientation: stoichiometry N means the number of molecules, sites or subunits per partner or assembly. As to “ELIC-α1GABAAR chimera (from UniProt P0C7B7 1-199) (receptor)”, the stoichiometry N was 5.
